According to patent publication US20150139990A1 (DAINIPPON SUMITOMO PHARMA, published 2015):

How the values were obtained:
Experiment in all cases: ELISA
human CD81 mutant V135A = target: T1, human CD81 mutant V135A (human, UniProt P60033 1-236, limits assumed)
T1 construct: as m30; not shown: C-terminal V5 and 6xHis tags
T1 sequence: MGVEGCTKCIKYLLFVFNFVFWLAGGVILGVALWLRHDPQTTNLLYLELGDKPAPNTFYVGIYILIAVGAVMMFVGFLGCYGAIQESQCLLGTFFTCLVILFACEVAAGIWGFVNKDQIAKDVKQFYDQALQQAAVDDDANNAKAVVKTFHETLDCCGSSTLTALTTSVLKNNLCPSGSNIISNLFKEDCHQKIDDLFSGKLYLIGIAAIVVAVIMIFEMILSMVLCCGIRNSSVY
In short: (§1)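 Human CD81 point mutants in pcDNA-DEST40 with C-terminal V5 and 6×His tags were expressed transiently in CHO cells for 48 hours. Membranes were solubilised with 1% n-octylglucoside and loaded at 5 μg/100 μL/well on Ni-NTA His Sorb plates (3 hours, 4° C). Antibody binding (1 hour, room temperature) was detected with HRP anti-human IgG4, TMB and absorbance at 450 nm. Relative binding affinity is the percentage of wild-type CD81 binding, corrected for V5-tag expression.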

human CD81 mutant D137A = target: T2, human CD81 mutant D137A (human, UniProt P60033 1-236, limits assumed)
T2 construct: as m30; not shown: C-terminal V5 and 6xHis tags
T2 sequence: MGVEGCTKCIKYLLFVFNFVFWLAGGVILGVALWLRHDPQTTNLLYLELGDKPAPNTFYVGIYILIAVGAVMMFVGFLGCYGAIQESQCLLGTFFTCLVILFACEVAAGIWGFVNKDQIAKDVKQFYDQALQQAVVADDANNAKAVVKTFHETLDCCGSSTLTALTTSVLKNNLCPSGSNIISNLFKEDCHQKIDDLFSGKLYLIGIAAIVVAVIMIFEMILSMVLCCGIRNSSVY
In short: as §1

human CD81 mutant G158S = target: T3, human CD81 mutant G158S (human, UniProt P60033 1-236, limits assumed)
T3 construct: as m30; not shown: C-terminal V5 and 6xHis tags
T3 sequence: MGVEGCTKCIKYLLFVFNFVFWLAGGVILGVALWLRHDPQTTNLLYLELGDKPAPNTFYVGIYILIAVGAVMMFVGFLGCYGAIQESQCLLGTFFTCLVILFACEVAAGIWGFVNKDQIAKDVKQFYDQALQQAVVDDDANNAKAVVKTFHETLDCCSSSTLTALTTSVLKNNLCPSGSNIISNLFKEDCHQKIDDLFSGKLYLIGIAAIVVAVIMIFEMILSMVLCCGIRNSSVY
In short: as §1

human CD81 mutant A164T = target: T4, human CD81 mutant A164T (human, UniProt P60033 1-236, limits assumed)
T4 construct: as m30; not shown: C-terminal V5 and 6xHis tags
T4 sequence: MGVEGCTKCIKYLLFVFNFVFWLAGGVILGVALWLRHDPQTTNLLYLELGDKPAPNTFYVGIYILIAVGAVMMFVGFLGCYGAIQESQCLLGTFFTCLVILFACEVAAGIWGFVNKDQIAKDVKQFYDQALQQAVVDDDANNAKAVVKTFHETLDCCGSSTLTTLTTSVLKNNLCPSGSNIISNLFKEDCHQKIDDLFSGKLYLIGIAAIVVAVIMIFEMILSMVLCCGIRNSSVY
In short: as §1

human CD81 mutant L165A = target: T5, human CD81 mutant L165A (human, UniProt P60033 1-236, limits assumed)
T5 construct: as m30; not shown: C-terminal V5 and 6xHis tags
T5 sequence: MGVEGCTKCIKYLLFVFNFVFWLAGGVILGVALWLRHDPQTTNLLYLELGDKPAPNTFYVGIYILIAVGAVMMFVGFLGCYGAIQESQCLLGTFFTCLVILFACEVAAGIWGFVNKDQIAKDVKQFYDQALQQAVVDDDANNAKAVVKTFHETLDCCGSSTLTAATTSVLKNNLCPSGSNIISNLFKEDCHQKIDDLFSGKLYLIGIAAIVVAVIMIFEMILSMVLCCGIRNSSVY
In short: as §1

human CD81 mutant V169A = target: T6, human CD81 mutant V169A (human, UniProt P60033 1-236, limits assumed)
T6 construct: as m30; not shown: C-terminal V5 and 6xHis tags
T6 sequence: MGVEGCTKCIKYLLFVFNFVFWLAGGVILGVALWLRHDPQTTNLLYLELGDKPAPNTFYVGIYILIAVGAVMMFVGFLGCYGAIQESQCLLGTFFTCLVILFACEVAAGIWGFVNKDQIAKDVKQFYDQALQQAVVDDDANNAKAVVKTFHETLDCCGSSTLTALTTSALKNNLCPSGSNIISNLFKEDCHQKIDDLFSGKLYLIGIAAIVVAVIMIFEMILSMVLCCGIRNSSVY
In short: as §1

relative binding affinity (human CD81 mutant V135A): < 20%
relative binding affinity (human CD81 mutant D137A): < 20%
relative binding affinity (human CD81 mutant G158S): < 20%
relative binding affinity (human CD81 mutant A164T): < 20%
relative binding affinity (human CD81 mutant L165A): < 20%
relative binding affinity (human CD81 mutant V169A): < 20%
B1: 002-A07 IgG4 antibody (antibody)
heavy: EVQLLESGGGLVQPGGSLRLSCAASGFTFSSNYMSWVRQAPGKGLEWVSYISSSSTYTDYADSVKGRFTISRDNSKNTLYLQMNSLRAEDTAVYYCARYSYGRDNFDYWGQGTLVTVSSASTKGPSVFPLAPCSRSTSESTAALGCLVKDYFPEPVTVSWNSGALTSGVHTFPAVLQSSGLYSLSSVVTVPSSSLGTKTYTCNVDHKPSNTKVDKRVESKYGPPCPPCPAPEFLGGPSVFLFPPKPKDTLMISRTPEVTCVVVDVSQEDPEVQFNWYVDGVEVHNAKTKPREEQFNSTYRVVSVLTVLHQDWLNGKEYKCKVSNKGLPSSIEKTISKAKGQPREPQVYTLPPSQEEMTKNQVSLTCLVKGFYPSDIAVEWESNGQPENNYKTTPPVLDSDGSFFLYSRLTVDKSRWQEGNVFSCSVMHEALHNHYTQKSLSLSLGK
light: QSVLTQPPSASGTPGQRVTISCTGSTSNIGAGYDTHWYQQLPGTAPKLLIYGNSNRPSGVPDRFSGSKSGTSASLAISGLRSEDEADYYCQSYDTNLSVWVFGGGTKLTVLGQPKAAPSVTLFPPSSEELQANKATLVCLISDFYPGAVTVAWKADSSPVKAGVETTTPSKQSNNKYAASSYLSLTPEQWKSHRSYSCQVTHEGSTVEKTVAPTECS
notes: human IgG4 S228P, lambda light chain
